Data published in US20030211076A1, “Compositions and methods for treatment of proliferative disorders” (priority 2003, published 2003).

How the values were obtained:
[1] = test system: growth-arrested Swiss 3T3 cells; assay: PDGF-AB-stimulated cell cycle progression, FACS analysis; type: cell-based; details: 15 ng PDGF-AB/ml (0.56 nM), 20 h
Method: Growth-arrested Swiss 3T3 cells were incubated for 20 h at 37° C. with or without PDGF-AB, LO, BAPN or their combinations as indicated. After incubation, FACS analysis was carried out to characterize the cell cycle progression under different conditions as described in FIG. 6. FIG. 20A represents a dose response of PDGF-AB in cell cycle progression. FIG. 20B represents the LO inhibition of PDGF-AB-stimulated cell cycle progression (the control represents cells treated with 15 ng ml^−1 PDGF-AB in the absence of added LO). FIG. 20C represents the effects of inactivation of LO by BAPN on PDGF-AB-stimulated the cell cycle progression. LO: 15 nM, PDGF-AB: 15 ng ml^−1, BAPN: 100 AM. Data represent the means (±sd) of three separate experiments each assessed with triplicate dishes.

lysyl oxidase (LO) = target: T1, lysyl oxidase (LO) (Bos taurus, UniProt P33072); assay: LO-dependent H2O2 release, horseradish peroxidase-coupled fluorescence assay (substrate potential for LO); type: biochemical; details: for molar ratio of H2O2 released per mole of PDGF-AB at the plateau: 0.11 μM LO, 0.46 μM PDGF-AB; for substrate of LO (in words): factor as sole substrate, LO-dependent H2O2 release in vitro
T1 construct: per mature LO molecule (32 kD); from tissue
T1 sequence (P33072 170-418): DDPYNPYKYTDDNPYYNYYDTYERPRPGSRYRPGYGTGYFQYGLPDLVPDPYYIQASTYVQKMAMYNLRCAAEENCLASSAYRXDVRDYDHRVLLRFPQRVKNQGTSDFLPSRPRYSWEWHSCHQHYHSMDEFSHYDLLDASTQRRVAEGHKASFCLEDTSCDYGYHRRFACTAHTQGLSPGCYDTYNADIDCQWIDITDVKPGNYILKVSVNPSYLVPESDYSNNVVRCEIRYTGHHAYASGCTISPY
Method: The oxidation of a primary amine substrate by LO yields stoichiometric amounts of the corresponding aldehyde, hydrogen peroxide and ammonia, as shown: RCH2NH2+O2+H2O→RCHO+H2O2+NH3 (Kagan, 1986). To assess the substrate potential of FGF2, LO-dependent H2O2 release was monitored in assays using FGF2 as the sole substrate, using both the optimum temperature for LO activity of 55° C. and the physiological temperature of 37° C. (Trackman et al., 1981).
LO reaction with FGF2 as a substrate was assessed by a horseradish peroxidase-coupled fluorescence assay for H2O2 production. Reaction mixtures contained 0.25 mg of sodium homovanillate(HVA), 40 μg of HRP, and FGF2 at doses as indicated below in 0.05 M sodium borate buffer, pH 8.2, in a final volume of 2 ml. Assays were initiated by the addition of LO to reaction mixtures. H2O2 release was continuously monitored at excitation and emission wavelengths of 315 and 425 nm, respectively, at a constant temperature of 55° C. or 37° C., as specified, in the thermostatted cuvette chamber of an SLM Aminco Bowman Series 2 Luminescence Spectrometer. All activity data were corrected for background rates of H2O2 release determined in complete assay mixtures supplemented with 200 μM BAPN, an irreversible inhibitor of LO. In FIG. 4, solid curves represent the time course of H2O2 release at 55° C. in the reaction of 0.16 μM LO with 0.23 (a), 0.45 (b) and 0.9 (c) μM FGF2, respectively. Dotted curve (d) represents the time course of H2O2 release in the reaction of 0.16 μM LO with 0.9 μM FGF2 at 37° C. The same data were obtained from three separate experiments.
Using the fluorometric assay (Trackman et al., 1981) to monitor LO-dependent H2O2 release in vitro, the substrate potential of other growth factors was also assessed. Major members of the FGF family tested included FGF 1, 4, 5, 6, 7 and EGF (note: All factors are human recombinant forms purchased from R & D Systems, Inc., Minneapolis, Minn.).
A human recombinant disulfide-linked dimer of VEGF165 (MW: 42 kDa)(R & D Systems) as a sole substrate was tested by using the standard in vitro LO catalysis assays as described above for FIG. 4 (Trackman et al., 1981). Curves represent the time course of H2O2 release at 55° C. (a) or 37° C. (b) in the reaction of 0.10 μM LO with 0.45 μM VEGF165. All activity data were corrected for background rates of H2O2 release determined in complete assay mixtures supplemented with the same amounts of LO preincubated with 100 μM BAPN for 15 min at 37° C. The same data were obtained from three separate experiments.
The standard in vitro LO catalysis assays as described above for FIG. 4 (Trackman et al., 1981) using human recombinant PDGF-AB (R & D Systems) as a sole substrate was tested. […] In FIG. 19, curves represent the time course of H2O2 release at 55° C. (a) and 37° C. (b) in the reaction of 0.11 μM LO with 0.46 μM PDGF-AB, respectively. All activity data were corrected for background rates of H2O2 release determined in complete assay mixtures supplemented with the same amounts of LO preincubated with 100 μM BAPN for 15 minutes at 37° C. The same data were obtained from three separate experiments.
To analyze the substrate potential of Tat, the standard in vitro LO catalysis assays as described in FIG. 4 (Trackman et al., 1981) was performed at the optimum temperature of 55° C. and at the physiological temperature of 37° C. A recombinant Tat with 9 lysines in a total of 86 amino acids was used as a sole substrate. FIG. 12A represents a dose and temperature-dependent response. Curves represent the time course of H2O2 release at 55° C. (solid) or 37° C. (dotted) in the reaction of 0.10 μM LO with 0.22 (a and d), 0.43 (b and e) and 0.85 (c and f) μM Tat, respectively. All activity data were corrected for background rates of H2O2 release determined in complete assay mixtures supplemented with the same amounts of LO preincubated with 100 μM BAPN for 15 min at 37° C. […]

[2] = test system: ERK1 and ERK2 MAP kinases; assay: FGF2-stimulated MAP kinase phosphorylation, Western blot; type: cell-based
Method: Since activation of MAP kinases by FGF2 is one of the earliest mitogenic signaling events within cells (Maher), the effects of LO on FGF2-stimulated MAP kinase phosphorylation were tested by Western blot analysis using an antibody specific for phospho-extracellular signal-regulated kinases 1 and 2 (ERK1 and ERK2). The amount of total ERK1 and ERK2 MAP kinases within the same cell extracts was determined by using an antibody that recognizes both the phospho- and non-phospho-forms of ERK1 and ERK2. […] Cell extracts were prepared and equal amounts of proteins (25 μg) were analyzed by 10% SDS-PAGE. Immunoblotting was performed using antibodies specific for the active forms of ERK1 and ERK2 (A) and total ERKs (B).

[3] = test system: FGF2 nuclear localization in Swiss 3T3 cells; assay: FGF2 nuclear localization, immunochemical staining; type: cell-based; details: 0.28 nM FGF2 for 1 h
Method: After endocytosis, a fraction of exogenous FGF2 can enter the nucleus of a variety of cell types in a cell cycle-dependent manner (Mason; Rifkin et al.; Prats et al.; Stachowiak et al., 1996; Arese et al.; Baldin et al.). Thus, the possibility that oxidation of FGF2 by LO affects the nuclear localization of this growth factor was tested by using immunochemistry. In FIGS. […]

[4] = test system: growth-arrested Swiss 3T3 cells; assay: FGF2-stimulated cell cycle progression, FACS analysis; type: cell-based; details: 5 ng FGF2/ml (0.28 nM FGF2), 20 h
Method: The activity of native and LO-oxidized FGF2 on cell cycle progression was evaluated by using fluorescence activated cell sorting (FACS) analysis (Darzynkiewicz et al.). Swiss 3T3 cells were growth-arrested by incubation in 0.3% fetal bovine serum (FBS)/Dulbecco's Modified Eagle's Medium (DMEM) for 3 days. As depicted in FIGS. 6A-6C, the prepared growth-arrested cells were treated for 20 h at 37° C. with or without FGF2, LO, BAPN or their combinations as indicated. After treatment, cells were washed, suspended by treatment with trypsin, washed again and fixed in 0.5% formaldehyde/0.1% Triton X-100/PBS for 15 minutes on ice followed by incubation of samples in 10 μg propidium iodide and 20 units RNAse per ml of PBS for 60 minutes in the dark for DNA staining. The fluorescence intensities of each sample of 10,000 cells in G1, S and G2/M phases were measured by flow cytometry at the FL2 setting of the fluorescence activated cell sorting (FACS) instrument (Becton-Dickinson Corp.). […] LO was presented at 10 nM, FGF2 at 5 ng ml^−1 and BAPN at 100 μM. Data represent the means (+sd) of three separate experiments each assessed with duplicate dishes.

Compound	cells entering the S-M phases versus control (maximum effect) [1]	molar ratio of H2O2 released per mole of PDGF-AB at the plateau (lysyl oxidase (LO); 37° C.)	molar ratio of H2O2 released per mole of PDGF-AB at the plateau (lysyl oxidase (LO); 55° C.)	substrate of LO (in words) (lysyl oxidase (LO))	MAP kinase activation by FGF2 ([2]; 200 μM genistein)	tyrosine phosphorylation of 42- and 44-kDa ERKs ([2]; 5 ng/ml FGF2, 10 min, versus control)	nuclear FGF2 staining [3]	maximum H2O2 released per mole of FGF2 (lysyl oxidase (LO); 37° C., 0.16 μM LO, 0.9 μM FGF2)	molar ratio H2O2 released per mole of FGF2 at the plateau (lysyl oxidase (LO); 55° C., 0.16 μM LO, 0.23 μM FGF2)	molar ratio H2O2 released per mole of FGF2 at the plateau (lysyl oxidase (LO); 55° C., 0.16 μM LO, 0.45 μM FGF2)	molar ratio H2O2 released per mole of FGF2 at the plateau (lysyl oxidase (LO); 55° C., 0.16 μM LO, 0.9 μM FGF2)	molar ratio H2O2 released per mole of FGF2, mean±standard deviation (lysyl oxidase (LO); 55° C., 0.16 μM LO, mean over 0.23, 0.45 and 0.9 μM FGF2)	relative number of cells entering the S-M phases versus control (maximum effect) [4]
PDGF-AB: 27 kDa human recombinant PDGF-AB heterodimer, 21 lysine residues	3.3 fold	3.0	19.5	substrates of LO									
O=c1c(-c2ccc(O)cc2)coc2cc(O)cc(O)c12 [genistein, reference compound]					inhibited								
FGF2: 18 kDa human recombinant FGF2, 14 lysine residues				productive substrate for LO		markedly increased	significantly increased nuclear staining	5.3 moles of H2O2 per mole of FGF2	14.1	14.6	14.2	14.3±0.3	4.7 fold
